Experimental data from PMC5647379, “Calmodulin confers calcium sensitivity to the stability of the distal intracellular assembly domain of Kv7.2 channels” (Scientific Reports, 2017).

Tests used:
[1] = molecular target: T1, dansylated calmodulin (D-CaM, 5-(dimethylamino)naphtalene-1-sulfonyl-calmodulin) (rat, UniProt P0DP29 1-149, dansyl (5-(dimethylamino)naphtalene-1-sulfonyl) label, residue not stated); assay: other fluorescence titration; D-CaM 12.5 nM in the cuvette, increasing concentrations of GST-fusion protein; no Ca2+ (EGTA 10 mM); Tris-HCl 25 mM pH 7.4, KCl 120 mM, NaCl 5 mM, MgCl2 2 mM; 25 °C; apparent affinity (EC50 of a Hill fit to the fluorescence enhancement); conditions: both partners purified
[2] = molecular target: T1, dansylated calmodulin (D-CaM, …); assay: other fluorescence titration; as a2 but with an excess of free Ca2+ (3.9 µM; 9.63 mM Ca2+ added to the Fluorescence buffer); apparent affinity (EC50); conditions: both partners purified

EC50 [1]: 11 nM | EC50 [2]: 27.1 nM
B1: GST-Kv7.2 AB (helices AB fused to GST) (domain or fragment)
chain: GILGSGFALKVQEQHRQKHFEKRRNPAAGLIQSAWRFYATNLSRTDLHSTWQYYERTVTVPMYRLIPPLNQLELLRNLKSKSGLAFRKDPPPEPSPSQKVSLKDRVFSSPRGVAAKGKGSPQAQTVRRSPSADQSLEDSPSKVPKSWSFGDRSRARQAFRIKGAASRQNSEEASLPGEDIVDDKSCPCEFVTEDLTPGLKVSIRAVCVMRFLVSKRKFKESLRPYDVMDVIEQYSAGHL
